Laboratory results published in article PMC10164576, “Interaction with the carboxy-terminal tip of SSB is critical for RecG function in E. coli” (Nucleic Acids Research, 2023).
Like-named read-outs stand apart in the source and are kept apart here. Where a SMILES comes first, the peptide text is derived from it. Where no end group is shown, it is not given here. The star is where a group is joined. 6FAM = O=C1OC2(c3ccc(O)cc3Oc3cc(O)ccc32)c2cc(C(=O)*)ccc21

Columns and labels:
RecG (WT) = molecular target: T1, RecG (WT) (Escherichia coli, UniProt P24230); experiment: Fluorescence anisotropy binding of 6-FAM-labelled SSB peptides to wildtype RecG; design: species or system E. coli
T1 construct: RecG was expressed in STL2669/pT7pol26 (a gift from Dr Susan Lovett, Brandeis University) with overexpression plasmid pEAW111; made in house; host or cells: E. coli STL2669/pT7pol26
Protocol: SSB peptides (sequences listed in Figure 2) were designed with an N-terminal tryptophan residue for quantification and N-terminal 6-FAM label (Genscript). RecG was incubated with 0.2 M potassium glutamate, 1 mM DTT, 0.1 μg/ml BSA, 1 × RecA buffer (25 mM Tris-acetate, pH 7.6, 5% w/v glycerol, 3 mM potassium glutamate, 10 mM magnesium acetate, 1 mM DTT), and 10 nM labeled peptide at room temperature for 30 min. Fluorescence polarization (FP) values were measured at 25°C using a Beacon 2000 Fluorescence Polarization System. Polarization values were normalized to the FP value measured at 0 nM RecG. Normalized FP was converted to normalized anisotropy. Experiments were performed in triplicate, and the data were fit to a one site binding model (, where X is ligand concentration, Y is normalized anisotropy, Bmax is the maximum anisotropy, and KD is the dissociation constant) using GraphPad Prism Software.
Figure 2. RecG binds directly and specifically to the SSB-Ct. (A) Fluorescence anisotropy binding isotherms for RecG binding to SSB-Ct (black), SSB113 (violet), SSBΔF (blue), or SSB IDL (green) peptides. Peptide sequences are listed in parentheses with * representing an N-terminal 6-FAM label. Anisotropy values are normalized to the reading at 0 μM RecG. […] (B–E) ITC analysis of RecG/SSB binding. Thermograms (top) and binding isotherms (bottom) of titrations of (B) full-length SSB, (C) SSB-Ct peptide, (D) SSBΔF or (E) SSBΔF peptide into RecG solutions.
Two models explaining how RecG interacts with SSB have been proposed - RecG could interact with the SSB-Ct ([29]) or RecG could interact with the IDL ([48],[49]). To begin testing each model, we used an equilibrium fluorescence anisotropy assay to measure RecG binding to fluorescently labeled SSB-Ct or IDL peptides (Figure 2). Titration of RecG with the SSB-Ct peptide led to an increase in fluorescence anisotropy, which occurs when protein binding slows the tumbling rate of a labeled peptide ([90]). […] KD values in the low micromolar range are typical for SSB/SIP complexes ([10],[12–14],[19],[23]). […]

[1] = molecular target: T2, RecG DNA helicase, wildtype (E. coli, UniProt P24230 1-693); experiment: ITC; SSB proteins or unlabeled peptides injected into RecG in the cell; 20 mM Tris-HCl pH 8.0, 150 mM NaCl, 10% glycerol, 1 mM EDTA, 1 mM β-mercaptoethanol; 25°C; one-site model; concentrations as monomers; conditions: both partners purified
T2 construct: RecG DNA helicase, E. coli, expressed from overexpression plasmid pEAW111; No tag is mentioned; also called WT RecG; source: E. coli STL2669/pT7pol26 with pEAW111, purified (ammonium sulfate, DEAE, Source 15Q, Source 15S)
T2 sequence (looked up): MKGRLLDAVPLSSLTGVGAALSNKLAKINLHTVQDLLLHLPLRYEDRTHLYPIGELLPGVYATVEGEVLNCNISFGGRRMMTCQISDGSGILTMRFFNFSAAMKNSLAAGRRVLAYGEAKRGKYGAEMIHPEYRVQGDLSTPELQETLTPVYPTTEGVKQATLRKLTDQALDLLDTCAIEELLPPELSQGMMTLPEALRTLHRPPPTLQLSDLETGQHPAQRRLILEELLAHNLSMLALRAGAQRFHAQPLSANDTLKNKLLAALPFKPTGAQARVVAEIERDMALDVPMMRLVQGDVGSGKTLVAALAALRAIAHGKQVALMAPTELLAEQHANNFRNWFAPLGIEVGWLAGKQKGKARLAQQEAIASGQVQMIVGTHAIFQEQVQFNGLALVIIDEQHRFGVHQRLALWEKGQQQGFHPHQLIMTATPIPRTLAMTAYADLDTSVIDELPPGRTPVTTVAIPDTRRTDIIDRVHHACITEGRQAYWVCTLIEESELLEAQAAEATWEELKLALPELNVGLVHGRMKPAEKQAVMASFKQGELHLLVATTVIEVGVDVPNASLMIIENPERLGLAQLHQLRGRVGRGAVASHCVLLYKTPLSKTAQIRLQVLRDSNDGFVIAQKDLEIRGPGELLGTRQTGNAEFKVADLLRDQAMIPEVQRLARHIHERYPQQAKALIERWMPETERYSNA

SSB [2] = conditions: S. cerevisiae pJ69-4a; Gal4 BD-RecG (variant) with Gal4 AD-SSB; SD His- and Ade-deficient plates, 30°C, 4–5 days
Protocol: SSB, RecG or RecG variants were N-terminally fused to the DNA binding domain (pGBD) or activation domain (pGAD) of the Gal4 transcription factor. Resulting plasmids (Supplementary Table S3) were transformed ([84]) in pairs into Saccharomyces cerevisiae strain pJ69-4a ([85]) and selected for on synthetic dextrose (SD) Leu- and Trp-deficient plates. Transformants were inoculated into SD Leu- and Trp-deficient liquid medium and grown at 30°C overnight rotating. Saturated overnight cultures were diluted to an OD600 nm of 1.0 in 2% glucose and serially diluted 10-fold in 2% glucose. Dilutions were spotted (10 μl) onto SD His- and Ade-deficient plates and grown at 30°C for 4–5 days. Plates were imaged on a Fotodyne gel doc. Site-directed mutagenesis of RecG in pGBD was performed by in vivo assembly mutagenesis ([78]) of pEAW1156.
A fourth charge-reversal variant of R484 was also tested as a control to determine whether an electrostatic change that is near, but not in, the putative SSB binding site would alter RecG binding to SSB. A yeast two-hybrid assay was used as an initial method to screen several RecG variants for interaction with SSB. In the two-hybrid assay, yeast were transformed with plasmids encoding SSB and RecG fused to the Gal4 activation and binding domains, respectively, and the RecG/SSB interaction was assessed by selecting for growth on selective medium plates. […]

ΦX174 RF I DNA = experiment: DNA-dependent ATP hydrolysis assay (coupled spectrophotometric) of RecG proteins; type: biochemical; conditions: 150 nM RecG, 3 mM ATP, 37°C, pH 7.6, triplicate
Protocol: ATPase rates for wildtype and variant RecG proteins were determined using a coupled spectrophotometric assay ([86]). ATP hydrolysis reactions were conducted with 150 nM RecG in 1 × RecA buffer, supplemented with 1 mM DTT, 2.2 mM phosphor(enol)pyruvate, 10 units/ml pyruvate kinase, 10 units/ml lactate dehydrogenase, 2 mM NADH, and 3 mM ATP with varying concentrations of ΦX174 RF I (New England Biolabs) DNA at 37°C. DNA concentrations are represented in μM nucleotides (nt). A380 nm measured the conversion of NADH into NAD^+. Measurements were taken every 20–40 s on a Cary UV-Vis spectrophotometer. ATP hydrolysis rates were calculated by dividing the slope of A380 nm measurements over time over the linear region by ε380 nm = 1.21 mM^−1 cm^−1 for NADH and the cell path length (1 cm).
To more rigorously and quantitatively test the RecG HD2/SSB-Ct binding model, a RecG variant in which one of the putative SSB-binding residues is altered (RecG R474E) was purified and tested for binding to the SSB-Ct peptide and to full-length SSB in vitro. This variant was chosen because of the predicted interaction of the R474 side chain with the alpha-carboxyl group of SSB-Ct C-terminal Phe (Figure 3A). Analogous interactions have proven to be essential points of contact in other SIPs ([10],[19]). […] ATPase activity of RecG R474E was indistinguishable from that of wildtype RecG, with values for both maximal ATPase rates and the DNA concentrations required for 50% stimulation (KDNA) within error between the two proteins (Figure 4B and Table 2). Thus, we concluded that the RecG R474E variant was properly folded. To further examine the effect of the R474E sequence change, we also used ITC to measure RecG R474E binding to either the SSB-Ct or to full-length SSB. Binding was not detected in either titration (Figure 4C).
Figure 4.
We first measured binding to the SSB-Ct. […] RecG R95A binding to the SSB-Ct was expected since our experiments had shown that the peptide bound at a site in the RecG HD2 domain. […] This difference could be due to compromised DNA binding in the R95A variant. Arg95 is located on the DNA binding surface of the RecG wedge domain ([74]), and changing adjacent residues Phe96 or Phe97 to Ala results in drastic reductions in DNA binding and unwinding activity ([91]).

SSB [3] = conditions: cited from earlier work
From the text: In contra ... || To directly test whether the proposed RecG wedge domain IDL binding site is important for interaction with SSB, we purified a RecG R95A variant and measured its activity in vitro. […] We first measured binding to the SSB-Ct.

CC[C@H](C)[C@H](NC(=O)[C@H](CC(=O)O)NC(=O)[C@H](CC(=O)O)NC(=O)[C@H](CC(=O)O)NC(=O)[C@H](Cc1ccccc1)NC(=O)[C@H](CC(=O)O)NC(=O)[C@H](CCSC)NC(=O)[C@H](Cc1c[nH]c2ccccc12)NC(=O)c1ccc2c(c1)C1(OC2=O)c2ccc(O)cc2Oc2cc(O)ccc21)C(=O)N[C@@H](CO)C(=O)N[C@@H](Cc1ccccc1)C(=O)O [SSB113 peptide] (6FAM-WMDFDDDISF-OH)
Kd (RecG (WT)): 23 ± 3.1 µM

H-WMDFDDDIP [SSBΔF peptide]
Kd (RecG (WT); read-out: FP K D, WT RecG, fluorescence anisotropy, 10 nM N-terminal 6-FAM peptide, 0.2 M potassium glutamate, 25 mM Tris-acetate pH 7.6, 10 mM magnesium acetate, 30 min at room temperature, read at 25°C, one site fit, triplicate): > 30 µM

B1: SSB-Ct peptide, unlabeled (peptide)
peptide: WMDFDDDIPF
notes: N-terminal tryptophan residue added for quantification; C-terminal tip of SSB, E. coli; source: synthetic peptide (Genscript)
Kd [1]: 3.9 ± 0.8 µM | dH [1]: -16.7 ± 2.09 kJ/mol | stoichiometry N [1]: 0.92 ± 0.08

B2: RecG R474E: RecG Arg474Glu charge-reversal variant, HD2 domain (protein)
chain: MKGRLLDAVPLSSLTGVGAALSNKLAKINLHTVQDLLLHLPLRYEDRTHLYPIGELLPGVYATVEGEVLNCNISFGGRRMMTCQISDGSGILTMRFFNFSAAMKNSLAAGRRVLAYGEAKRGKYGAEMIHPEYRVQGDLSTPELQETLTPVYPTTEGVKQATLRKLTDQALDLLDTCAIEELLPPELSQGMMTLPEALRTLHRPPPTLQLSDLETGQHPAQRRLILEELLAHNLSMLALRAGAQRFHAQPLSANDTLKNKLLAALPFKPTGAQARVVAEIERDMALDVPMMRLVQGDVGSGKTLVAALAALRAIAHGKQVALMAPTELLAEQHANNFRNWFAPLGIEVGWLAGKQKGKARLAQQEAIASGQVQMIVGTHAIFQEQVQFNGLALVIIDEQHRFGVHQRLALWEKGQQQGFHPHQLIMTATPIPRTLAMTAYADLDTSVIDELPPGRTPVTTVAIPDTRRTDIIDEVHHACITEGRQAYWVCTLIEESELLEAQAAEATWEELKLALPELNVGLVHGRMKPAEKQAVMASFKQGELHLLVATTVIEVGVDVPNASLMIIENPERLGLAQLHQLRGRVGRGAVASHCVLLYKTPLSKTAQIRLQVLRDSNDGFVIAQKDLEIRGPGELLGTRQTGNAEFKVADLLRDQAMIPEVQRLARHIHERYPQQAKALIERWMPETERYSNA
modifications: left off: Gal4 DNA-binding domain, N-terminal, kept
yeast two-hybrid growth on selective medium (SSB [2]): failed to grow | K DNA (DNA concentration required for 50% stimulation of ATPase) (ΦX174 RF I DNA): 39.9 ± 2.9 μM nt | V max of ATP hydrolysis (ΦX174 RF I DNA): 363 ± 13 µM/min

B3: RecG R95A: RecG wedge domain variant (protein)
chain: MKGRLLDAVPLSSLTGVGAALSNKLAKINLHTVQDLLLHLPLRYEDRTHLYPIGELLPGVYATVEGEVLNCNISFGGRRMMTCQISDGSGILTMAFFNFSAAMKNSLAAGRRVLAYGEAKRGKYGAEMIHPEYRVQGDLSTPELQETLTPVYPTTEGVKQATLRKLTDQALDLLDTCAIEELLPPELSQGMMTLPEALRTLHRPPPTLQLSDLETGQHPAQRRLILEELLAHNLSMLALRAGAQRFHAQPLSANDTLKNKLLAALPFKPTGAQARVVAEIERDMALDVPMMRLVQGDVGSGKTLVAALAALRAIAHGKQVALMAPTELLAEQHANNFRNWFAPLGIEVGWLAGKQKGKARLAQQEAIASGQVQMIVGTHAIFQEQVQFNGLALVIIDEQHRFGVHQRLALWEKGQQQGFHPHQLIMTATPIPRTLAMTAYADLDTSVIDELPPGRTPVTTVAIPDTRRTDIIDRVHHACITEGRQAYWVCTLIEESELLEAQAAEATWEELKLALPELNVGLVHGRMKPAEKQAVMASFKQGELHLLVATTVIEVGVDVPNASLMIIENPERLGLAQLHQLRGRVGRGAVASHCVLLYKTPLSKTAQIRLQVLRDSNDGFVIAQKDLEIRGPGELLGTRQTGNAEFKVADLLRDQAMIPEVQRLARHIHERYPQQAKALIERWMPETERYSNA
modifications: left off: Gal4 DNA-binding domain, N-terminal, kept
notes: RecG wedge domain variant
yeast two-hybrid growth on selective medium (SSB [2]): grew on the selective medium | K DNA (DNA concentration required for 50% stimulation of ATPase) (ΦX174 RF I DNA): 18.5 ± 4.9 μM nt | V max of ATP hydrolysis (ΦX174 RF I DNA): 127 ± 11 µM/min | reduction in co-purification with SSB (SSB [3]; previous study): 24 fold | binding to SSB in co-purification assay, in words (SSB [3]; prior results): severely reduced binding to SSB
